Source: paper PMC5812989, “Evaluation of HER2-specific peptide ligand for its employment as radiolabeled imaging probe” (Scientific Reports, 2018)
Where a SMILES comes first, the peptide text is derived from it. Where no end group is shown, it is not given here. The star is where a group is joined. DTPA = O=C(O)CN(CCN(CC(=O)O)CC(=O)O)CCN(CC(=O)O)CC(=O)*

Experiments:
[1] = design: species or system BALB/c nu/nu mice; conditions: mouse, in vivo
Protocol: Four BALB/C nu/nu mice were used for the biodistribution studies. At the time of experiment, the average animal weight was 20.5 ± 0.9 g. Animals were injected intravenously (tail vein) with 3 µg (30 kBq) of ^111In-DTPA-A9 in 100 µL PBS. Since DTPA-A9 peptide resulted stable to serum proteolytic degradation in a range of 90 minutes (for details see Supplementary Information Fig. S6), at 1 hour after injection, a mixture of Ketalar-Rompun (20 µL of solution per gram body weight; Ketalar: 10 mg/mL; Rompun: 1 mg/mL) was injected intraperitonealy, and the mice were euthanized by a heart puncture using a syringe, pre-washed with diluted heparin (5000 IE/mL). Blood as well as brain, stomach, pancreas, lung, liver, spleen, kidneys, samples of muscle and bone, gastrointestinal tract (with its content) and remaining carcass were collected in pre-weighed plastic vials. Organs and tissue samples were weighed and measured for radioactivity using an automatic gamma counter. The tissue uptake values were calculated as per cent injected activity per gram of tissue (% ID/g) and per whole sample (% ID/sample). The gastrointestinal tract and the carcass uptakes were calculated only as % ID per whole sample. The radioactivity in the gastrointestinal tract with its content was used as a measure of hepatobiliary excretion.

[2] = In vitro peptide stability in serum (HPLC); format: in vitro ADME; conditions: during one hour; 0.5 mg/mL, RPMI with 10% FBS, 37 °C
Protocol: Figure S4: In vitro Peptide Stability in Serum. A9 modified peptides at concentration of 0.5 mg/mL were dissolved in RPMI containing 10% of FBS (fetal bovine serum) and incubated at 37 °C. Samples (50 μL) were taken regularly (t = 0, 0.5, 1, 2, 3, 6, and 24 h) and mixed with 100 μL of CH3CH2OH (96%), for precipitation of serum proteins. The cloudy reaction sample is cooled (4 °C) for 15 min and then spin at 16,000 rpm for 2 min, to pellet the precipitated serum proteins^1. The chromatographic analysis of samples (30 μL injected for each injection) were performed on an Alliance HT WATERS 2795 system, equipped with a PDA WATERS detector 2996 using a […] C18 Waters xBridge (3 μm, 4.6 x 50 mm) column, with a linear gradient from 5% to 70% of 0.05% TFA in CH3CN (Solvent B) over 20 min at a flow rate of 0.2 mL/min. […] Results are mean of three independent experiments performed in duplicate.

[3] = test system: HER2-expressing BT474 cells; test: LigandTracer / InteractionMap kinetics of binding to living HER2-expressing cells; design: species or system human; conditions: 1:2 interaction model, room temperature, 4, 12 and 36 nM, read-out: affinity, weaker binding site (low affinity interaction)
Protocol: For cell studies, the HER2-expressing breast carcinoma cell line BT474 (from ATCC) was used. The cell line was cultured in RPMI medium (Flow Irvine, UK) supplemented with 10% fetal calf serum (Sigma, USA), 2 mM L-glutamine and PEST (penicillin 100 IU/mL and 100 μg/mL streptomycin), all from Biokrom Kg, Germany.
Cells from the human breast carcinoma cell line BT474 were seeded on a local area of a cell culture dish (NunclonTM, Size 100620, NUNC A/S, Roskilde, Denmark), as described by Björke and Andersson[63]. The binding of ^111In-DTPA-A9 to living cells was monitored in real-time at room temperature using LigandTracer Yellow, using method established by Björke and Andersson[63]. In brief, the cell culture dish was placed on the sloping and rotating cell dish holder in LigandTracer Yellow, followed by a continuous monitoring of the radioactivity level along the rim of the dish. If the labelled peptide binds to the cells, an elevated signal will be recorded when the cells pass by the detector. […] Binding and dissociation curves were analyzed by InteractionMap software as described by Björkelund et al. to calculate affinity of ^111In-DTPA-A9 binding to living HER2-expressing cells.
Additionally, specificity of ^111In-DTPA-A9 binding to HER2 expressing cells was evaluated using pre-saturation of receptors by trastuzumab and by using ^111In-labeled scrambled DTPA-A9 (^111In- DTPA-S-A9). […]

CC(C)[C@H](NC(=O)[C@H](C)NC(=O)[C@@H](NC(=O)[C@H](CC(N)=O)NC(=O)[C@@H](NC(=O)[C@H](CC(=O)O)NC(=O)[C@H](CCC(N)=O)NC(=O)CN(CCN(CCN(CC(=O)O)CC(=O)O)CC(=O)O)CC(=O)O)C(C)C)[C@@H](C)O)C(=O)N[C@@H](C)C(=O)N[C@@H](Cc1c[nH]c2ccccc12)C(N)=O [^111In-DTPA-A9, metal not drawn] ({DTPA}-QDVNTAVAW-NH2)
radioactivity in the gastrointestinal tract with content [1]: approximately 1 % of injected activity
uptake, blood ([1]; iv, 1 h): 0.24 ± 0.04 % ID/g
uptake, bone ([1]; iv, 1 h): 0.16 ± 0.13 % ID/g
uptake, brain ([1]; iv, 1 h): 0.03 ± 0.03 % ID/g
uptake, liver ([1]; iv, 1 h): 0.44 ± 0.04 % ID/g
uptake, lung ([1]; iv, 1 h): 0.5 ± 0.3 % ID/g
uptake, muscle ([1]; iv, 1 h): 0.01 ± 0.01 % ID/g
uptake, pancreas ([1]; iv, 1 h): 0.13 ± 0.03 % ID/g
uptake, spleen ([1]; iv, 1 h): 0.22 ± 0.01 % ID/g
uptake, stomach ([1]; iv, 1 h): 0.27 ± 0.07 % ID/g

QDVNTAVAW-NH2 [A9]
stability on incubation in vitro with blood serum [2]: high stability

^111In-DTPA-SA9: 111In-labeled scrambled conjugate, same amino acids as A9 but in a different order ({DTPA}-WAVQNTDAV-NH2; also: DTPA complexed with 111In)
Kd [3]: 103 nM
